Target: T1, sperm FA-1 derived peptide (peptide 1, 35 residue peptide designed from antigen FA-1), biotinylated (biotin at the C-terminus, printed as '(SEQ ID NO: 1) - - - Biotin')
T1 peptide: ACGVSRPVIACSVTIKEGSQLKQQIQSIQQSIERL
Assay: phage ELISA, anti-phage HRP antibody (antibody to PVIII), OD
Method: Infected E. coli TG-1 with panning output phages (as described above) were plated to yield individual colonies. These colonies were picked into 100 μl YTAG media in wells of a flat bottom sterile 96-well plate and grown at 30° C. shaker at 150 RPM ON. 10 μl of phage were transferred into a fresh 96-well plate containing 90 μl of YTAG+2.5 μl /ml (5×10⁸ CFU) of M13KO7 helper phage and grown at 37° C. without shaking for 30 min following shaking at 150 RPM for 30 minutes. Plates were centrifuged at 4000 RPM for 5 minutes at 14° C. and the supernatant was discarded. 200 μl /well of YTAK (with Kanamycin) was added and the plate was left to grow at 30° C. shaker at 150 RPM overnight. The bacteria plate was then centrifuged at 4000 RPM for 5 minutes at 4° C. and 100 μl of the supernatant mixed with 100 μl of PBST was used for the ELISA.
100 μl /well of antigen and control antigen were plated in ELISA plates at 4° C. overnight to coat the plates. The ELISA plates were washed once with washing buffer (300 μl/well of PBST) and blocked with 3% milk/PBS for 1 hr at room temperature (RT). […] The reaction was then stopped with […] of 1 M HCL solution plates were read plates at […]. Detection was achieved using a horseradish peroxidase (HRP)-tagged anti-phage antibody and the color resulting from the substrate-enzyme reaction was read with an automated ELISA reader.

B1: scFv J102 (scFv)
scFv: MAEVQLLESGGGLVQPGGSLRLSCAASGFTFSDHDMHWVRQAPGKGLEWVSGISWKSDSMAYRDSVKGRFTISRDNSKNTLYLQMNSLRAEDTAVYYCARDQEHFDFDYWGQGTLVTVSSGSAGGGGSGGGGSGGGGSDIVLTQPPSASGTPGQRVTISCSGSSSNLGSNTVNWYQQLPGKAPKLLIYDNNQRPSGVPDRFSGSKSGTSASLAISGLRSEDEADYYCAAWDDSLSGLVFGTGTKLTVL
notes: Human-derived scFv from a phage display library; also called Clone J102
binding result: binds
